Tests used:
[1] = target: human α-Synuclein pre-formed fibrils (human) (UniProt P37840); assay: cell-based or functional assay
[2] = target: Lewy body α-Synuclein (human) (UniProt P37840); assay: IHC, human amygdala; OD of Lewy bodies / OD of tissue

% Inhibition (primary neuron assay) [1] [%] | LB Discrimination Index [2] | Substance
0 | – | IgG (antibody)
94.7 | – | Syn211 (antibody)
– | 2.1 | Syn303 (antibody)

— patent US20230025707A1
